{"source": "patent US20240252592A1", "about": "(TIANJIN INSTITUTE OF PHARMACEUTICAL RESEARCH, published 2024)", "binders": {"B1": {"name": "Compound 5 (peptide)", "peptide": "HXQGTFTSDKSKYLXERAAKEFVXWLEGGPSSG", "HELM": "PEPTIDE1{H.[Aib].Q.G.T.F.T.S.D.K.S.K.Y.L.E.E.R.A.A.K.E.F.V.E.W.L.E.G.G.P.S.S.G.[am]}|PEPTIDE2{[CCCCCCCCCCCCCCCC(=O)[*:2]].[gGlu].[gGlu]}$PEPTIDE1,PEPTIDE2,10:R3-3:R2$$$V2.0; N-terminus assumed", "SMILES": "CCCCCCCCCCCCCCCC(=O)N[C@@H](CCC(=O)N[C@@H](CCC(=O)NCCCC[C@H](NC(=O)[C@H](CC(=O)O)NC(=O)[C@H](CO)NC(=O)[C@@H](NC(=O)[C@H](Cc1ccccc1)NC(=O)[C@@H](NC(=O)CNC(=O)[C@H](CCC(N)=O)NC(=O)C(C)(C)NC(=O)[C@@H](N)Cc1c[nH]cn1)[C@@H](C)O)[C@@H](C)O)C(=O)N[C@@H](CO)C(=O)N[C@@H](CCCCN)C(=O)N[C@@H](Cc1ccc(O)cc1)C(=O)N[C@@H](CC(C)C)C(=O)N[C@@H](CCC(=O)O)C(=O)N[C@@H](CCC(=O)O)C(=O)N[C@@H](CCCNC(=N)N)C(=O)N[C@@H](C)C(=O)N[C@@H](C)C(=O)N[C@@H](CCCCN)C(=O)N[C@@H](CCC(=O)O)C(=O)N[C@@H](Cc1ccccc1)C(=O)N[C@H](C(=O)N[C@@H](CCC(=O)O)C(=O)N[C@@H](Cc1c[nH]c2ccccc12)C(=O)N[C@@H](CC(C)C)C(=O)N[C@@H](CCC(=O)O)C(=O)NCC(=O)NCC(=O)N1CCC[C@H]1C(=O)N[C@@H](CO)C(=O)N[C@@H](CO)C(=O)NCC(N)=O)C(C)C)C(=O)O)C(=O)O"}, "B2": {"name": "Compound 3 (peptide)", "peptide": "HXQGTFTSDKSKYLEERAAKEFVAWLKEGGPSSG", "HELM": "PEPTIDE1{H.[Aib].Q.G.T.F.T.S.D.K.S.K.Y.L.E.E.R.A.A.K.E.F.V.A.W.L.K.E.G.G.P.S.S.G.[am]}|PEPTIDE2{[CCCCCCCCCCCCCCCC(=O)[*:2]].[gGlu].[gGlu]}$PEPTIDE1,PEPTIDE2,10:R3-3:R2$$$V2.0; N-terminus assumed", "SMILES": "CCCCCCCCCCCCCCCC(=O)N[C@@H](CCC(=O)N[C@@H](CCC(=O)NCCCC[C@H](NC(=O)[C@H](CC(=O)O)NC(=O)[C@H](CO)NC(=O)[C@@H](NC(=O)[C@H](Cc1ccccc1)NC(=O)[C@@H](NC(=O)CNC(=O)[C@H](CCC(N)=O)NC(=O)C(C)(C)NC(=O)[C@@H](N)Cc1c[nH]cn1)[C@@H](C)O)[C@@H](C)O)C(=O)N[C@@H](CO)C(=O)N[C@@H](CCCCN)C(=O)N[C@@H](Cc1ccc(O)cc1)C(=O)N[C@@H](CC(C)C)C(=O)N[C@@H](CCC(=O)O)C(=O)N[C@@H](CCC(=O)O)C(=O)N[C@@H](CCCNC(=N)N)C(=O)N[C@@H](C)C(=O)N[C@@H](C)C(=O)N[C@@H](CCCCN)C(=O)N[C@@H](CCC(=O)O)C(=O)N[C@@H](Cc1ccccc1)C(=O)N[C@H](C(=O)N[C@@H](C)C(=O)N[C@@H](Cc1c[nH]c2ccccc12)C(=O)N[C@@H](CC(C)C)C(=O)N[C@@H](CCCCN)C(=O)N[C@@H](CCC(=O)O)C(=O)NCC(=O)NCC(=O)N1CCC[C@H]1C(=O)N[C@@H](CO)C(=O)N[C@@H](CO)C(=O)NCC(N)=O)C(C)C)C(=O)O)C(=O)O"}, "B3": {"name": "Compound 4 (peptide)", "peptide": "B2 peptide with E15X, A24X, K27E, E28A", "HELM": "PEPTIDE1{H.[Aib].Q.G.T.F.T.S.D.K.S.K.Y.L.E.E.R.A.A.K.E.F.V.A.W.L.E.A.G.G.P.S.S.G.[am]}|PEPTIDE2{[CCCCCCCCCCCCCCCC(=O)[*:2]].[gGlu].[gGlu]}$PEPTIDE1,PEPTIDE2,10:R3-3:R2$$$V2.0; N-terminus assumed", "SMILES": "CCCCCCCCCCCCCCCC(=O)N[C@@H](CCC(=O)N[C@@H](CCC(=O)NCCCC[C@H](NC(=O)[C@H](CC(=O)O)NC(=O)[C@H](CO)NC(=O)[C@@H](NC(=O)[C@H](Cc1ccccc1)NC(=O)[C@@H](NC(=O)CNC(=O)[C@H](CCC(N)=O)NC(=O)C(C)(C)NC(=O)[C@@H](N)Cc1c[nH]cn1)[C@@H](C)O)[C@@H](C)O)C(=O)N[C@@H](CO)C(=O)N[C@@H](CCCCN)C(=O)N[C@@H](Cc1ccc(O)cc1)C(=O)N[C@@H](CC(C)C)C(=O)N[C@@H](CCC(=O)O)C(=O)N[C@@H](CCC(=O)O)C(=O)N[C@@H](CCCNC(=N)N)C(=O)N[C@@H](C)C(=O)N[C@@H](C)C(=O)N[C@@H](CCCCN)C(=O)N[C@@H](CCC(=O)O)C(=O)N[C@@H](Cc1ccccc1)C(=O)N[C@H](C(=O)N[C@@H](C)C(=O)N[C@@H](Cc1c[nH]c2ccccc12)C(=O)N[C@@H](CC(C)C)C(=O)N[C@@H](CCC(=O)O)C(=O)N[C@@H](C)C(=O)NCC(=O)NCC(=O)N1CCC[C@H]1C(=O)N[C@@H](CO)C(=O)N[C@@H](CO)C(=O)NCC(N)=O)C(C)C)C(=O)O)C(=O)O"}, "B4": {"name": "Compound 2 (peptide)", "peptide": "B2 peptide with E15X, A24X, K27E, E28A", "HELM": "PEPTIDE1{H.[Aib].Q.G.T.F.T.S.D.K.S.K.Y.L.E.E.R.A.A.K.E.F.V.E.W.L.E.A.G.G.P.S.S.G.[am]}|PEPTIDE2{[CCCCCCCCCCCCCCCC(=O)[*:2]].[gGlu].[gGlu]}$PEPTIDE1,PEPTIDE2,10:R3-3:R2$$$V2.0; N-terminus assumed", "SMILES": "CCCCCCCCCCCCCCCC(=O)N[C@@H](CCC(=O)N[C@@H](CCC(=O)NCCCC[C@H](NC(=O)[C@H](CC(=O)O)NC(=O)[C@H](CO)NC(=O)[C@@H](NC(=O)[C@H](Cc1ccccc1)NC(=O)[C@@H](NC(=O)CNC(=O)[C@H](CCC(N)=O)NC(=O)C(C)(C)NC(=O)[C@@H](N)Cc1c[nH]cn1)[C@@H](C)O)[C@@H](C)O)C(=O)N[C@@H](CO)C(=O)N[C@@H](CCCCN)C(=O)N[C@@H](Cc1ccc(O)cc1)C(=O)N[C@@H](CC(C)C)C(=O)N[C@@H](CCC(=O)O)C(=O)N[C@@H](CCC(=O)O)C(=O)N[C@@H](CCCNC(=N)N)C(=O)N[C@@H](C)C(=O)N[C@@H](C)C(=O)N[C@@H](CCCCN)C(=O)N[C@@H](CCC(=O)O)C(=O)N[C@@H](Cc1ccccc1)C(=O)N[C@H](C(=O)N[C@@H](CCC(=O)O)C(=O)N[C@@H](Cc1c[nH]c2ccccc12)C(=O)N[C@@H](CC(C)C)C(=O)N[C@@H](CCC(=O)O)C(=O)N[C@@H](C)C(=O)NCC(=O)NCC(=O)N1CCC[C@H]1C(=O)N[C@@H](CO)C(=O)N[C@@H](CO)C(=O)NCC(N)=O)C(C)C)C(=O)O)C(=O)O"}, "B5": {"name": "Compound 11 (peptide)", "peptide": "HXQGTFTSDKSKYLXEKRAKEFIXWLEAGGPSSG", "HELM": "PEPTIDE1{H.[Aib].Q.G.T.F.T.S.D.K.S.K.Y.L.E.E.K.R.A.K.E.F.I.E.W.L.E.A.G.G.P.S.S.G.[am]}|PEPTIDE2{[CCCCCCCCCCCCCCCC(=O)[*:2]].[gGlu].[gGlu]}$PEPTIDE1,PEPTIDE2,10:R3-3:R2$$$V2.0; N-terminus assumed", "SMILES": "CCCCCCCCCCCCCCCC(=O)N[C@@H](CCC(=O)N[C@@H](CCC(=O)NCCCC[C@H](NC(=O)[C@H](CC(=O)O)NC(=O)[C@H](CO)NC(=O)[C@@H](NC(=O)[C@H](Cc1ccccc1)NC(=O)[C@@H](NC(=O)CNC(=O)[C@H](CCC(N)=O)NC(=O)C(C)(C)NC(=O)[C@@H](N)Cc1c[nH]cn1)[C@@H](C)O)[C@@H](C)O)C(=O)N[C@@H](CO)C(=O)N[C@@H](CCCCN)C(=O)N[C@@H](Cc1ccc(O)cc1)C(=O)N[C@@H](CC(C)C)C(=O)N[C@@H](CCC(=O)O)C(=O)N[C@@H](CCC(=O)O)C(=O)N[C@@H](CCCCN)C(=O)N[C@@H](CCCNC(=N)N)C(=O)N[C@@H](C)C(=O)N[C@@H](CCCCN)C(=O)N[C@@H](CCC(=O)O)C(=O)N[C@@H](Cc1ccccc1)C(=O)N[C@H](C(=O)N[C@@H](CCC(=O)O)C(=O)N[C@@H](Cc1c[nH]c2ccccc12)C(=O)N[C@@H](CC(C)C)C(=O)N[C@@H](CCC(=O)O)C(=O)N[C@@H](C)C(=O)NCC(=O)NCC(=O)N1CCC[C@H]1C(=O)N[C@@H](CO)C(=O)N[C@@H](CO)C(=O)NCC(N)=O)[C@@H](C)CC)C(=O)O)C(=O)O"}}, "key": {"human GLP-1 receptor": {"target": "human GLP-1 receptor (human, UniProt P43220 24-463)", "assay": "cell-based or functional assay"}, "GC receptor": {"target": "GC receptor", "assay": "cell-based or functional assay"}}, "note": "Substitutions are numbered along the chain they refer to. Numbered stars: 1 amine (or outer) side, 2 acyl side, 3 side chain; on linkers, the order of the positions; unused ones are H or OH. Square brackets hold non-standard residues; d marks the D form. Side chains are listed from the residue outwards. Ends that are not written are not given here. * marks the point of attachment. C20 diacid = O=C(O)CCCCCCCCCCCCCCCCCCC(=O)*; C18 diacid = O=C(O)CCCCCCCCCCCCCCCCC(=O)*; γGlu = O=C(O)[C@H](CCC(=O)[*:2])N[*:1]; Palmitoyl = CCCCCCCCCCCCCCCC(=O)*; AEEA = NCCOCCOCC(=O)O; Aib = CC(C)(N)C(=O)O"}
{"binder": "H[Aib]QGTFTSDK([γGlu-γGlu-Palmitoyl])SKYLEERAAKEFVEWLEGGPSSG-NH2 (not fully specified; printed as HAibQGTFTSDK*SKYLEERAAKEFVEWLEGGPSSG-Amid)", "note": "[Compound 7]", "values": [{"measurement": "EC50 of GLP-1 receptor mediated cAMP production", "setting": "human GLP-1 receptor", "value": 0.72, "unit": "nM"}]}
{"binder": "B1", "values": [{"measurement": "EC50 of GLP-1 receptor mediated cAMP production", "setting": "human GLP-1 receptor", "value": 0.26, "unit": "nM"}]}
{"binder": "B2", "values": [{"measurement": "EC50 of GC receptor mediated cAMP production", "setting": "GC receptor", "value": 0.1, "unit": "nM"}, {"measurement": "EC50 of GLP-1 receptor mediated cAMP production", "setting": "human GLP-1 receptor", "value": 20.8, "unit": "nM"}]}
{"binder": "B3", "values": [{"measurement": "EC50 of GC receptor mediated cAMP production", "setting": "GC receptor", "value": 0.024, "unit": "nM"}]}
{"binder": "B4", "values": [{"measurement": "EC50 of GC receptor mediated cAMP production", "setting": "GC receptor", "value": 0.0352, "unit": "nM"}]}
{"binder": "H[Aib]QGTFTSDK([AEEA-AEEA-γGlu-C20 diacid])SKYLDERAAKEFIAWLEAGGPSSG-NH2 (not fully specified; printed as HAibQGTFTSDK***SKYLDERAAKEFIAWLEAGGPSSG-Amid)", "note": "[Compound 77]", "values": [{"measurement": "EC50 of GC receptor mediated cAMP production", "setting": "GC receptor", "value": 0.076, "unit": "nM"}]}
{"binder": "H[Aib]QGTFTSDK([AEEA-AEEA-γGlu-C18 diacid])SKYLDERAAKEFIAWLEGGPSSG-NH2 (not fully specified; printed as HAibQGTFTSDK**SKYLDERAAKEFIAWLEGGPSSG-Amid)", "note": "[Compound 75]", "values": [{"measurement": "EC50 of GC receptor mediated cAMP production", "setting": "GC receptor", "value": 0.087, "unit": "nM"}]}
{"binder": "H[Aib]QGTFTSDK([AEEA-AEEA-γGlu-C18 diacid])SKYLEERAAKEFIAWLEGGPSSG-NH2 (not fully specified; printed as HAibQGTFTSDK**SKYLEERAAKEFIAWLEGGPSSG-Amid)", "note": "[Compound 6]", "values": [{"measurement": "EC50 of GC receptor mediated cAMP production", "setting": "GC receptor", "value": 0.052, "unit": "nM"}]}
{"binder": "H[Aib]QGTFTSDK([AEEA-AEEA-γGlu-C20 diacid])SKYLEERAAKEFIAWLEAGGPSSG-NH2 (not fully specified; printed as HAibQGTFTSDK***SKYLEERAAKEFIAWLEAGGPSSG-Amid)", "note": "[Compound 35]", "values": [{"measurement": "EC50 of GC receptor mediated cAMP production", "setting": "GC receptor", "value": 0.036, "unit": "nM"}]}
{"binder": "B5", "values": [{"measurement": "EC50 of GC receptor mediated cAMP production", "setting": "GC receptor", "value": 1.73, "unit": "nM"}, {"measurement": "EC50 of GLP-1 receptor mediated cAMP production", "setting": "human GLP-1 receptor", "value": 3.05, "unit": "nM"}]}
{"binder": "H[Aib]QGTFTSDK([AEEA-AEEA-γGlu-C20 diacid])SKYLDERAAKEFVAWLEAGGPSSG-NH2 (not fully specified; printed as HAibQGTFTSDK***SKYLDERAAKEFVAWLEAGGPSSG-Amid)", "note": "[Compound 13]", "values": [{"measurement": "EC50 of GC receptor mediated cAMP production", "setting": "GC receptor", "value": 0.033, "unit": "nM"}, {"measurement": "EC50 of GLP-1 receptor mediated cAMP production", "setting": "human GLP-1 receptor", "value": 0.076, "unit": "nM"}]}
